We go through one protein from publication PMC12535202, “N3A motifs in RIβ mediate allosteric crosstalk between cAMP and ATP in PKA activation” (Protein Science : A Publication of the Protein Society, 2025).

This series concerns the molecule itself. As to the kind of experiment: non-reducing SDS-PAGE with Western blot; mouse tissue supernatants (70 μg), sample buffer without reducing agent, unboiled, 8% SDS-PAGE, blot probed with an RIβ-specific antibody.

B1: RIβ from mouse brain tissue (natural protein, mouse (endogenous in mouse brain), UniProt P12849 1-381, looked up)
chain: MASPSCFHSEDEDSLKGCEMYVQKHGIQQVLKECIVHLCVAKPDRPLRFLREHFEKLEKEENRQILARQKSNSQCDSHDEEISPTPPNPVVKARRRRGGVSAEVYTEEDAVSYVRKVIPKDYKTMTALAKAISKNVLFSHLDDNERSDIFDAMFPVTHIGGETVIQQGNEGDNFYVIDQGEVDVYVNGEWVTNISEGGSFGELALIYGTPRAATVKAKTDLKLWGIDRDSYRRILMGSTLRKRKMYEEFLSKVSILESLEKWERLTVADALEPVQFEDGEKIVVQGEPGDDFYIITEGTASVLQRRSPNEEYVEVGRLGPSDYFGEIALLLNRPRAATVVARGPLKCVKLDRPRFERVLGPCSEILKRNIQRYNSFISLTV
modifications: disulfide bonded (dimer seen under non-reduced conditions)
notes: PKA regulatory subunit RIβ, endogenous in mouse brain, detected with an RIβ-specific antibody; source: endogenous, mouse brain homogenate (digitonin lysis buffer), supernatant
As to B1, the “stoichiometry N” value was 2.

The stoichiometry N is the number of molecules, sites or subunits per partner or assembly.
